Experimental data reported in US20070086998A1 (GPC BIOTECH, published 2007).

How the values were obtained:
Assay in all cases: cell-based or functional assay
[1] = molecular target: T1, chimeric DR-IE (human-mouse chimeric MHC class II molecule) (human; murine)
[2] = molecular target: T2, HLA-DR on PRIESS cells (DRA*0101/DRB1*0401) (human, UniProt P01903 26-254; P01911 30-266)
T2 MHC II alpha: not shown
T2 MHC II beta: not shown

[3] = molecular target: HLA-DR on LG-2 cells (human)
[4] = molecular target: T2, HLA-DR on PRIESS cells …
[5] = molecular target: HLA-DR on LG-2 cells (human); remark: listed apart in the source
[6] = molecular target: T1, chimeric DR-IE (human-mouse chimeric …); remark: listed apart in the source

B1: MS-GPC-8-27-41 (Fab) (Fab, V domains shown)
VH: QVQLKESGPALVKPTQTLTLTCTFSGFSLSTSGVGVGWIRQPPGKALEWLALIDWDDDKYYSTSLKTRLTISKDTSKNQVVLTMTNMDPVDTATYYCARSPRYRGAFDYWGQGTLVTVSS
VL: DIVLTQPPSVSGAPGQRVTISCSGSESNIGNNYVQWYQQLPGTAPKLLIYDNNQRPSGVPDRFSGSKSGTSASLAITGLQSEDEADYYCQSYDMNVHVFGGGTKLTVLG
[1]
  IC50, IL-2 secretion of T-Hyb 1 cells stimulated by 0401-IE transgenic APC; Fab: 3.6 nM (Fab concentration/2)
  Maximum inhibition(%), IL-2 secretion of T-Hyb 1 cells; Fab: 100%
[2]
  EC50 of cell killing for bivalent agent; PRIESS; Fab cross-linked with anti-FLAG M2: 7.7 nM
[3]
  EC50 of cell killing for bivalent agent; LG2; Fab cross-linked with anti-FLAG M2: 7.2 nM

B2: MS-GPC-8-6-27 (Fab) (Fab, V domains shown)
VH: QVQLKESGPALVKPTQTLTLTCTFSGFSLSTSGVGVGWIRQPPGKALEWLALIDWDDDKYYSTSLKTRLTISKDTSKNQVVLTMTNMDPVDTATYYCARSPRYRGAFDYWGQGTLVTVSS
VL: DIVLTQPPSVSGAPGQRVTISCSGSDSNIGANYVTWYQQLPGTAPKLLIYDNNQRPSGVPDRFSGSKSGTSASLAITGLQSEDEADYYCQSYDYDHYVFGGGTKLTVLG
[1]
  IC50, IL-2 secretion of T-Hyb 1 cells stimulated by 0401-IE transgenic APC; Fab: 3 nM (Fab concentration/2)
  Maximum inhibition(%), IL-2 secretion of T-Hyb 1 cells; Fab: 100%

B3: MS-GPC-10-Fab (Fab, V domains shown)
VH: QVQLKESGPALVKPTQTLTLTCTFSGFSLSTSGVGVGWIRQPPGKALEWLALIDWDDDKYYSTSLKTRLTISKDTSKNQVVLTMTNMDPVDTATYYCARQLHYRGGFDLWGQGTLVTVSS
VL: DIVLTQPPSVSGAPGQRVTISCSGSSSNIGSNYVSWYQQLPGTAPKLLIYDNNQRPSGVPDRFSGSKSGTSASLAITGLQSEDEADYYCQSYDLTMGVFGGGTKLTVLG
[2]
  EC50 of cell killing for bivalent agent; PRIESS; Fab cross-linked with anti-FLAG M2: 33 nM

B4: MS-GPC-8-6-13 (Fab) (Fab, V domains shown)
VH: QVQLKESGPALVKPTQTLTLTCTFSGFSLSTSGVGVGWIRQPPGKALEWLALIDWDDDKYYSTSLKTRLTISKDTSKNQVVLTMTNMDPVDTATYYCARSPRYRGAFDYWGQGTLVTVSS
VL: DIVLTQPPSVSGAPGQRVTISCSGSESNIGANYVTWYQQLPGTAPKLLIYDNNQRPSGVPDRFSGSKSGTSASLAITGLQSEDEADYYCQSYDYDHYVFGGGTKLTVLG
[1]
  IC50, IL-2 secretion of T-Hyb 1 cells stimulated by 0401-IE transgenic APC; Fab: 2.1 nM (Fab concentration/2)
  Maximum inhibition(%), IL-2 secretion of T-Hyb 1 cells; Fab: 100%

B5: MS-GPC-8-27-7 (Fab) (Fab, V domains shown)
VH: QVQLKESGPALVKPTQTLTLTCTFSGFSLSTSGVGVGWIRQPPGKALEWLALIDWDDDKYYSTSLKTRLTISKDTSKNQVVLTMTNMDPVDTATYYCARSPRYRGAFDYWGQGTLVTVSS
VL: DIVLTQPPSVSGAPGQRVTISCSGSESNIGNNYVGWYQQLPGTAPKLLIYDNNQRPSGVPDRFSGSKSGTSASLAITGLQSEDEADYYCQSYDMNVHVFGGGTKLTVLG
[1]
  IC50, IL-2 secretion of T-Hyb 1 cells stimulated by 0401-IE transgenic APC; Fab: 5.9 nM (Fab concentration/2)
  Maximum inhibition(%), IL-2 secretion of T-Hyb 1 cells; Fab: 100%

B6: MS-GPC-8-10-57 (IgG4 form) (antibody, V domains shown)
VH: QVELKESGPALVKPTQTLTLTCTFSGFSLSTSGVGVGWIRQPPGKALEWLALIDWDDDKYYSTSLKTRLTISKDTSKNQVVLTMTNMDPVDTATYYCARSPRYRGAFDYWGQGTLVTVSS
VL: DIVLTQPPSVSGAPGQRVTISCSGSESNIGNNYVQWYQQLPGTAPKLLIYDNNQRPSGVPDRFSGSKSGTSASLAITGLQSEDEADYYCQSYDLIRHVFGGGTKLTVLG
[1]
  IC50, IL-2 secretion of T-Hyb 1 cells stimulated by 0401-IE transgenic APC; IgG: 0.31 nM
  Maximum inhibition(%), IL-2 secretion of T-Hyb 1 cells; IgG: 100%
[2]
  EC50 of cell killing for bivalent agent; PRIESS; IgG4: 1.1 nM
[3]
  EC50 of cell killing for bivalent agent; LG2; IgG4: 1 nM
[4]
  % Killing by mAb; PRIESS (DR 4,4); 50 nM, 4 h: 93%
[5]
  % Killing by mAb; LG-2 (DR 1,1); 50 nM, 4 h: 88%
[6]
  IC50 value for inhibition of T cell proliferation (lymph node cells of chimeric 0401-IE transgenic mice, ovalbumin): 11 nM

B7: MS-GPC-1-Fab (Fab, V domains shown)
VH: QVQLKESGPALVKPTQTLTLTCTFSGFSLSTSGVGVGWIRQPPGKALEWLALIDWDDDKYYSTSLKTRLTISKDTSKNQVVLTMTNMDPVDTATYYCARQYGHRGGFDHWGQGTLVTVSS
VL: DIVLTQPPSVSGAPGQRVTISCSGSSSNIGSNYVSWYQQLPGTAPKLLIYDNNQRPSGVPDRFSGSKSGTSASLAITGLQSEDEADYYCQSYDFNESVFGGGTKLTVLG
[2]
  EC50 of cell killing for bivalent agent; PRIESS; Fab cross-linked with anti-FLAG M2: 54 nM

B8: MS-GPC-8-6 (Fab) (Fab, V domains shown)
VH: QVQLKESGPALVKPTQTLTLTCTFSGFSLSTSGVGVGWIRQPPGKALEWLALIDWDDDKYYSTSLKTRLTISKDTSKNQVVLTMTNMDPVDTATYYCARSPRYRGAFDYWGQGTLVTVSS
VL: DIVLTQPPSVSGAPGQRVTISCSGSSSNIGSNYVSWYQQLPGTAPKLLIYDNNQRPSGVPDRFSGSKSGTSASLAITGLQSEDEADYYCQSYDYDHYVFGGGTKLTVLG
[1]
  IC50, IL-2 secretion of T-Hyb 1 cells stimulated by 0401-IE transgenic APC; Fab: 20 nM (Fab concentration/2)
  Maximum inhibition(%), IL-2 secretion of T-Hyb 1 cells; Fab: 100%

B9: MS-GPC-8-10-57 (Fab) (Fab, V domains shown)
VH: QVQLKESGPALVKPTQTLTLTCTFSGFSLSTSGVGVGWIRQPPGKALEWLALIDWDDDKYYSTSLKTRLTISKDTSKNQVVLTMTNMDPVDTATYYCARSPRYRGAFDYWGQGTLVTVSS
VL: DIVLTQPPSVSGAPGQRVTISCSGSESNIGNNYVQWYQQLPGTAPKLLIYDNNQRPSGVPDRFSGSKSGTSASLAITGLQSEDEADYYCQSYDLIRHVFGGGTKLTVLG
[1]
  IC50, IL-2 secretion of T-Hyb 1 cells stimulated by 0401-IE transgenic APC; Fab: 2.9 nM (Fab concentration/2)
  Maximum inhibition(%), IL-2 secretion of T-Hyb 1 cells; Fab: 100%
[3]
  EC50 of cell killing for bivalent agent; LG2; Fab cross-linked with anti-FLAG M2: 7.2 nM
